biological target: T1, TmCsp (cold shock protein) (Thermotoga maritima, UniProt O54310 1-66); experiment: Trp fluorescence quenching; 303 K; EMSA: 50 mM NaH2PO4 pH 6.5, 20 mM NaCl, 0.2 mM EDTA, room temperature 1 h, 20% gel in 1xTBE at 4 C; NMR: 50 mM sodium phosphate pH 6.5, 20 mM NaCl, 0.2 mM EDTA; details: protein: recombinant; tags: none stated; chain copies: 2; label: none (5'-fluorescein in EMSA); single strand
T1 sequence (O54310 whole entry): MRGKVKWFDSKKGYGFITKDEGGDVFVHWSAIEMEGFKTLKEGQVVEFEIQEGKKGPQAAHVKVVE

Going from AAAAAAA (ssDNA) [(dA)7] to UUUUUUU (ssRNA) [(rU)7], the Kd falls from 5000 ± 200 nM to 10.8 ± 0.8 nM (460-fold).

CCCCCCC (ssDNA) [(dC)7] and GGGGGGG (ssDNA) [(dG)7] are within 1.5-fold of each other in Kd: 2800 ± 100 nM for the first, 3400 ± 100 nM for the second.

With TTTTTTT (ssDNA) [(dT)7] the Kd was 4 ± 0.2 nM.

biological target: T1, TmCsp (cold shock protein); experiment: Trp fluorescence quenching; 323 K; EMSA: 50 mM NaH2PO4 pH 6.5, 20 mM NaCl, 0.2 mM EDTA, room temperature 1 h, 20% gel in 1xTBE at 4 C; NMR: 50 mM sodium phosphate pH 6.5, 20 mM NaCl, 0.2 mM EDTA; details: protein: recombinant; tags: none stated; chain copies: 2; label: none (5'-fluorescein in EMSA); single strand

First: UUUUUUU (ssRNA) [(rU)7]
Second: TTTTTTT (ssDNA) [(dT)7]
The Kd of the first is 3.5-fold higher: 1520 ± 10 nM for the first, 440 ± 20 nM for the second.

biological target: T1, TmCsp (cold shock protein); experiment: Trp fluorescence quenching; 343 K; EMSA: 50 mM NaH2PO4 pH 6.5, 20 mM NaCl, 0.2 mM EDTA, room temperature 1 h, 20% gel in 1xTBE at 4 C; NMR: 50 mM sodium phosphate pH 6.5, 20 mM NaCl, 0.2 mM EDTA; details: protein: recombinant; tags: none stated; chain copies: 2; label: none (5'-fluorescein in EMSA); single strand

Compared with UUUUUUU (ssRNA) [(rU)7], CCCCCCC (ssDNA) [(dC)7] is 1.6-fold lower in Kd: 17400 ± 100 nM for the first, 11000 ± 100 nM for the second. The second binds more tightly here.

Compared with GGGGGGG (ssDNA) [(dG)7], TTTTTTT (ssDNA) [(dT)7] is 3.5-fold lower in Kd: 5600 ± 100 nM for the first, 1600 ± 40 nM for the second.
